Tests used:
[1] = target: Vip3Aa (full-length Vip3Aa protoxin, from Bacillus thuringiensis 9816C) (Bacillus thuringiensis 9816C); test: SEC + other: dynamic light scattering; purified proteins on a Superdex 200 Increase 10/300 GL column; DLS of the same proteins (Fig. S2A)
[2] = target: Vip3Aa DI-DIII (domain I to domain III truncation variant, untreated) (Bacillus thuringiensis 9816C); test: SEC; trypsin-treated proteins (1:50 wt:wt, 4 °C, 6 h) on Superdex 200 Increase 10/300 GL, peak fractions analysed by SDS-PAGE; untreated DI-DIV and DI-DIII as controls
[3] = target: trypsin-activated Vip3Aa DI-DIII (DI-DIII^act) (Bacillus thuringiensis 9816C); test: as above

## Vip3Aa (full-length Vip3Aa protoxin, from Bacillus thuringiensis 9816C) (natural protein)
[1]
  stoichiometry N: 4

## Vip3Aa DI-DIII (domain I to domain III truncation variant, untreated) (domain or fragment)
[2]
  stoichiometry N: 4

## trypsin-activated Vip3Aa DI-DIII (DI-DIII^act) (complex)
[3]
  stoichiometry N: 4

Reference: PMC10017365, “Functional characterization of Vip3Aa from Bacillus thuringiensis reveals the contributions of specific domains to its insecticidal activity” (The Journal of Biological Chemistry, 2023)
